Our source for the Kd values is patent US20260243766A1 (published 2026).

The assay concerns the target R6A/Q72R. The assay can be described thus: SPR. For orientation: SPR reads the build-up and loss of mass on a sensor chip optically.

B1: 10LH (scFv)
scFv: SRNGGDGQSVLTQPPSVSVSPGQTASITCSGDSLGNKYACWYQQKPGQSPVLVIYQDSKRPSGIPERFSGSNSGNTATLTISGTQAMDEADYYCQAWDSSRGYTVVFGTGTKVTVSSQTGGSGGGGSGGGGSGGGGSEVQLLESGGGLVQPGGSLRLSCAASGFTFDSYAMSWVRQAPGKGLEWVSAISGYGGSTYYADSVKGRFTISRDNSKNTLYLQMNSLRAEDTAVYYCAKYTYFLDAFDIWGQGTMVTVSSS
What is called Kd is the concentration at which binding is half-saturated. Low readings indicate tighter binding, high ones weaker binding. In turn, B1 gave a Kd of 18.8 µM.
